Columns and labels:
[1] = system: AR-regulated gene mRNA in LNCaP cells; assay: Real-time quantitative reverse-transcription PCR of LNCaP ebp1 transfectants; type: cell-based, human
Protocol: Real-Time Quantitative Reverse-Transcription PCR: The method of […] et al. (Nakanishi et al., 2003, Quantitative Analysis of Breast Cancer Resistance Protein and Cellular Resistance to Flavopiridol in Acute Leukemia Patients, Clin. Cancer Res., 9: 3320-3328) was used as previously described. […] Real-time quantitative RT-PCR was then performed on the LightCycler (Roche, Indianapolis, Ind.) platform to determine the relative mRNA levels of Ebp1, AR, kallikrein-2 and POV-1. The following forward and reverse primers were selected using Primer Express software and synthesized by Core Laboratory of University of Maryland School of Medicine: Ebp1, sense: […] [NT] ID NO: 6) and antisense: 5° […] ID NO: 7), Kallikrein-2, sense: [NT] ID NO: 8) and antisense: [NT] ID NO: 9), POV-1, sense: [NT] ID NO: 10) and antisense: [NT] ID NO: 11), Actin, sense: [NT] ID NO: 12) and antisense […] ID NO: 13). An SRBR Green PCR Kit was used (Applied Biosystems, Foster City, Calif.), and the analyses were performed in duplicate or triplicate in a total volume of 15 μl including 0.9 μl of 25 mM MgCl2, 1.5 μl SYBR Green I, 0.3 μl Enzyme Mix, 0.75 μl of each primer (50 ng/μl), and 2 μl of cDNA synthesized with random hexamers. Target mRNA values were normalized using actin mRNA as an internal control. The relative quantitation of gene expression was performed using the comparative ΔΔ Ct (threshold method) using β-actin as an internal control ([…] et al., 2002, The Nonsteroidal Anti-Inflammatory Drug Sulindac Causes Down-Regulation of Signal Transducer and Activator of Transcription 3 in Human Oral Squamous Cell Carcinoma Cells, Cancer Research, 62:1004-1007). The results of the microarray analysis were validated using real-time quantitative reverse-transcription PCR, Western blot, and ELISA methods. […] The expression of POV-1 mRNA and protein were each decreased about two-fold. PSA secretion in the conditioned media of ebp1 and vector control cells was assessed by ELISA. […] Finally, […]-2 mRNA expression was decreased approximately 40%.

[2] = system: AR and POV-1 protein in LNCaP cells; assay: Western blot analysis of LNCaP ebp1 transfectants; type: cell-based, human
Protocol: Western Blot Analysis: Briefly, total cell extracts were prepared by direct lysis of cells with buffer containing 50 mM Tris-HCl (pH 7.4), 1 mM EDTA, 250 mM NaCl, 1% Triton X-100, 0.5 mM dithiothreitol (DTT) and 1 mM phenylmethylsulfonyl (PMSF). Protein concentrations were measured using a detergent compatible kit (BioRad, Hercules, Calif.). Proteins were resolved by SDS-PAGE and analyzed by Western blotting as described (Xia et al., 2001, Analysis of the Expression Pattern of Ebp1, an ErbB-3-Binding Protein, Biochem. Biophys. Res. Commun., 289:240-244). The AR antibody was from Santa Cruz Biotechnology (Santa Cruz, Calif.), the Ebp1 antibody from Upstate (Lake Placid, N.Y.), the polyclonal antibody to actin from Sigma (St. Louis, Mo.), and the POV-1 antibody was a gift of Dr. Rodrigo Chugai, National Cancer Institute. The results of the microarray analysis were validated using real-time quantitative reverse-transcription PCR, Western blot, and ELISA methods. […] The expression of POV-1 mRNA and protein were each decreased about two-fold. PSA secretion in the conditioned media of ebp1 and vector control cells was assessed by ELISA. […] Finally, […]-2 mRNA expression was decreased approximately 40%.

[3] = system: LNCaP cells; assay: Growth in steroid-reduced medium with DHT and/or bicalutamide; type: cell-based, human; conditions: ebp1 transfectants (vector controls approximately 70%)
Protocol: Cell Growth Assays: To measure growth in complete media, cells (2×10^4) were seeded in triplicate in individual wells of 12-well tissue culture plates in RPMI-1640 with 10% FBS and cultured for the indicated number of days. Cells were trypsinized, stained with Trypan Blue (0.4%), and counted in a hemacytometer. […] Colonies were counted after 10 days of incubation. For studies assessing the effect of dihydrotestosterone (DHT) on cell growth, cells (2×10^4) were plated in 12-well plates in complete media. After a 24-hour attachment period, the medium was replaced with steroid-free medium [phenol red-free RPMI 1640 and 5% charcoal-stripped FBS (Sigma)] for 48 hours. The final concentration of testosterone in the steroid-reduced media was less than 5 pM. After 48 hours of steroid depletion, cells were re-fed with fresh steroid-reduced medium with or without the indicated concentrations of DHT and/or bicalutamide (10 μM), and total cell numbers were assessed 7 days later.

[4] = system: LNCaP xenografts; assay: LNCaP xenograft tumorigenicity in SCID mice; type: in vivo
Protocol: In Vivo Studies in SCID Mice: Male SCID mice, 4-6 weeks of age, were purchased from the National Cancer Institute (Frederick, Md.). Animals were housed in a pathogen-free environment under controlled conditions of light and humidity and received food and water ad libitum. LNCaP cells were grown in complete medium and 800 μg/ml of G418 until 80% confluent. Cells were scraped into phosphate-buffered saline (PBS), collected by centrifugation, and suspended in Matrigel (10 mg/ml) (Collaborative Research, Waltham, Mass.) at 1×10^7 cells/ml. Each mouse received s.c. injections at one site on each flank with 100 μl of cell suspension. Tumors were measured three times a week with calipers, and tumor volumes were calculated by the formula 0.5236×r1^2×r2 (r1<r2). The animal protocols were approved by the Institutional Animal Care and Use Committee at the University of Maryland.
After sacrifice, tumors were excised and fixed in 10% buffered neutral formalin. Sections of formalin-fixed, paraffin-embedded tissues were cut to 5 μm. Slides were stained with an Ebp1 antibody (Upstate) diluted 1:50 using the standard avidin-biotin method (Vector Labs, Burlinghame, Calif.). Peroxidase activity was localized by the diaminobenzidine tetrachloride peroxidase reaction with Harris hematoxylin as a counterstain.
Ebp1 expression suppresses growth of prostate cancer xenografts: The effect of ectopic expression of ebp1 on the tumorigenicity of LNCaP cells was examined. Ebp1- and vector-transfected cells were injected subcutaneously into SCID mice, and tumor growth was monitored. Tumor growth was first noted in both groups at day 20. […] At the end of the study, tumors had developed at more than 85% of the sites injected with the vector control cells, while less than 40% of sites inoculated with ebp1 transfectants developed tumors. This difference was significant at p=0.04 by Fisher's exact test, two-sided. […] Average tumor volumes observed at the end of the study were 268±70 mm^3 as compared with 1214±168 mm^3 for the vector controls (p=0.0003). In addition, the growth rate was also slower for ebp1 transfectants at all time points measured (p=0.0001). […] Thus, cells that grew to form tumors had lost overexpression of the transgene.

B1: Ebp1: ErbB3 binding protein (SEQ ID NO: 2), tested by stable ectopic expression (ebp1 transfection) in LNCaP cells (protein)
chain: MSGEDEQQEQTIAEDLVVTKYKMGGDIANRVLRSLVEASSSGVSVLSLCEKGDAMIMEETGKIFKKEKEMKKGIAFPTSISVNNCVCHFSPLKSDQDYILKEGDLVKIDLGVHVDGFIANVAHTFVVDVAQGTQVTGRKADVIKAAHLCAEAALRLVKPGNQNTQVTEAWNKVAHSFNCTPIEGMLSHQLKQHVIDGEKTIIQNPTDQQKKDHEKAEFEVHEVYAVDVLVSSGEGKAKDAGQRTTIYKRDPSKQYGLKMKTSRAFFSEVERRFDAMPFTLRAFEDEKKARMGVVECAKHELLQPFNVLYEKEGEFVAQFKFTVLLMPNGPMRITSGPFEPDLYKSEMEVQDAELKALLQSSASRKTQKKKKKKASKTAENPTSGETLEENEAGD
modifications: Homo Sapien
POV-1 mRNA decrease [1]: about two-fold | kallikirein-2 mRNA expression decrease [1]: approximately 40% | AR mRNA down-regulation ([1]; real-time PCR): more than 2 fold | AR protein decrease ([2]; Western blot, LNCaP ebp1 transfectants): more than five-fold | POV-1 protein decrease ([2]; ebp1 transfectants): about two-fold | growth inhibition by the withdrawal of androgens [3]: 60% | tumor growth rate ([4]; all time points measured, vs vector controls, p=0.0001): slower | inoculation sites with tumors ([4]; day 20, s.c. in SCID mice (vector controls 35%)): 10% | inoculation sites that developed tumors ([4]; end of the study (vector control more than 85%), p=0.04): less than 40% | average tumor volume ([4]; end of the study (vector controls 1214±168 mm^3), p=0.0003): 268±70 mm^3

Source: patent US7718626B2, “ErbB3 binding protein compositions and methods of use” (University of Maryland, Baltimore, priority 2005, dated 2010)
